This passage reports Kd results from patent publication US20130251724A1 (GlaxoSmithKline, published 2013).

T1: Human OSM (human, UniProt P13725 26-221)
T1 construct: Recombinant human OSM; also called hOSM; human Oncostatin M
T1 sequence: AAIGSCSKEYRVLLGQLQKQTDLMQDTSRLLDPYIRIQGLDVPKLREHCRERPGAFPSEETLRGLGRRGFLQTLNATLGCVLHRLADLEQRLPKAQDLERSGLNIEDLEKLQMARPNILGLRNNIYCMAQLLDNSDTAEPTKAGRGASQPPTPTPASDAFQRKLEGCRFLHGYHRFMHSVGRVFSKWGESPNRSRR

B1: Pos 96 Gly (antibody, V domains shown)
VH: EVQLVESGGGLVQPGGSLRLSCAASGFTFSSYAMSWVRQAPGKGLEWVATISDGGSFTYYLDNVRGRFTISRDNAKNSLYLQMNSLRAEDTAVYYCARDGGHTTFWYFDVWGRGTLVTVSS
VL: DIVMTQSPDSLAVSLGERATINCRASKSVSAAGYNFMHWYQQKPGQPPKVLIYYASNLESGVPDRFSGSGSGTDFTLTISSLQAEDVAVYYCLHSREFPFTFGGGTKVEIKR
notes: also called CDRH3 V96>G
B2: Pos 99 Ala (antibody, V domains shown)
VH: EVQLVESGGGLVQPGGSLRLSCAASGFTFSSYAMSWVRQAPGKGLEWVATISDGGSFTYYLDNVRGRFTISRDNAKNSLYLQMNSLRAEDTAVYYCARDVGHATFWYFDVWGRGTLVTVSS
VL: DIVMTQSPDSLAVSLGERATINCRASKSVSAAGYNFMHWYQQKPGQPPKVLIYYASNLESGVPDRFSGSGSGTDFTLTISSLQAEDVAVYYCLHSREFPFTFGGGTKVEIKR
notes: also called CDRH3 T99>A
B3: Pos 97 Ala (antibody, V domains shown)
VH: EVQLVESGGGLVQPGGSLRLSCAASGFTFSSYAMSWVRQAPGKGLEWVATISDGGSFTYYLDNVRGRFTISRDNAKNSLYLQMNSLRAEDTAVYYCARDVAHTTFWYFDVWGRGTLVTVSS
VL: DIVMTQSPDSLAVSLGERATINCRASKSVSAAGYNFMHWYQQKPGQPPKVLIYYASNLESGVPDRFSGSGSGTDFTLTISSLQAEDVAVYYCLHSREFPFTFGGGTKVEIKR
notes: also called CDRH3 G97>A
B4: Pos 98 Gly (antibody, V domains shown)
VH: EVQLVESGGGLVQPGGSLRLSCAASGFTFSSYAMSWVRQAPGKGLEWVATISDGGSFTYYLDNVRGRFTISRDNAKNSLYLQMNSLRAEDTAVYYCARDVGGTTFWYFDVWGRGTLVTVSS
VL: DIVMTQSPDSLAVSLGERATINCRASKSVSAAGYNFMHWYQQKPGQPPKVLIYYASNLESGVPDRFSGSGSGTDFTLTISSLQAEDVAVYYCLHSREFPFTFGGGTKVEIKR
notes: also called CDRH3 H98>G
B5: Pos 100C Glu (antibody, V domains shown)
VH: EVQLVESGGGLVQPGGSLRLSCAASGFTFSSYAMSWVRQAPGKGLEWVATISDGGSFTYYLDNVRGRFTISRDNAKNSLYLQMNSLRAEDTAVYYCARDVGHTTFWEFDVWGRGTLVTVSS
VL: DIVMTQSPDSLAVSLGERATINCRASKSVSAAGYNFMHWYQQKPGQPPKVLIYYASNLESGVPDRFSGSGSGTDFTLTISSLQAEDVAVYYCLHSREFPFTFGGGTKVEIKR
notes: also called CDRH3 Y100C>E
B6: Pos 97 Cys (antibody, V domains shown)
VH: EVQLVESGGGLVQPGGSLRLSCAASGFTFSSYAMSWVRQAPGKGLEWVATISDGGSFTYYLDNVRGRFTISRDNAKNSLYLQMNSLRAEDTAVYYCARDVCHTTFWYFDVWGRGTLVTVSS
VL: DIVMTQSPDSLAVSLGERATINCRASKSVSAAGYNFMHWYQQKPGQPPKVLIYYASNLESGVPDRFSGSGSGTDFTLTISSLQAEDVAVYYCLHSREFPFTFGGGTKVEIKR
notes: also called CDRH3 G97>C
B7: Pos 96 His (antibody, V domains shown)
VH: EVQLVESGGGLVQPGGSLRLSCAASGFTFSSYAMSWVRQAPGKGLEWVATISDGGSFTYYLDNVRGRFTISRDNAKNSLYLQMNSLRAEDTAVYYCARDHGHTTFWYFDVWGRGTLVTVSS
VL: DIVMTQSPDSLAVSLGERATINCRASKSVSAAGYNFMHWYQQKPGQPPKVLIYYASNLESGVPDRFSGSGSGTDFTLTISSLQAEDVAVYYCLHSREFPFTFGGGTKVEIKR
notes: also called CDRH3 V96>H
B8: Pos 99 Cys (antibody, V domains shown)
VH: EVQLVESGGGLVQPGGSLRLSCAASGFTFSSYAMSWVRQAPGKGLEWVATISDGGSFTYYLDNVRGRFTISRDNAKNSLYLQMNSLRAEDTAVYYCARDVGHCTFWYFDVWGRGTLVTVSS
VL: DIVMTQSPDSLAVSLGERATINCRASKSVSAAGYNFMHWYQQKPGQPPKVLIYYASNLESGVPDRFSGSGSGTDFTLTISSLQAEDVAVYYCLHSREFPFTFGGGTKVEIKR
notes: also called CDRH3 T99>C
B9: Pos 98 Ala (antibody, V domains shown)
VH: EVQLVESGGGLVQPGGSLRLSCAASGFTFSSYAMSWVRQAPGKGLEWVATISDGGSFTYYLDNVRGRFTISRDNAKNSLYLQMNSLRAEDTAVYYCARDVGATTFWYFDVWGRGTLVTVSS
VL: DIVMTQSPDSLAVSLGERATINCRASKSVSAAGYNFMHWYQQKPGQPPKVLIYYASNLESGVPDRFSGSGSGTDFTLTISSLQAEDVAVYYCLHSREFPFTFGGGTKVEIKR
notes: also called CDRH3 H98>A
B10: Pos 96 Lys (antibody, V domains shown)
VH: EVQLVESGGGLVQPGGSLRLSCAASGFTFSSYAMSWVRQAPGKGLEWVATISDGGSFTYYLDNVRGRFTISRDNAKNSLYLQMNSLRAEDTAVYYCARDKGHTTFWYFDVWGRGTLVTVSS
VL: DIVMTQSPDSLAVSLGERATINCRASKSVSAAGYNFMHWYQQKPGQPPKVLIYYASNLESGVPDRFSGSGSGTDFTLTISSLQAEDVAVYYCLHSREFPFTFGGGTKVEIKR
notes: also called CDRH3 V96>K
B11: Pos 98 Phe (antibody, V domains shown)
VH: EVQLVESGGGLVQPGGSLRLSCAASGFTFSSYAMSWVRQAPGKGLEWVATISDGGSFTYYLDNVRGRFTISRDNAKNSLYLQMNSLRAEDTAVYYCARDVGFTTFWYFDVWGRGTLVTVSS
VL: DIVMTQSPDSLAVSLGERATINCRASKSVSAAGYNFMHWYQQKPGQPPKVLIYYASNLESGVPDRFSGSGSGTDFTLTISSLQAEDVAVYYCLHSREFPFTFGGGTKVEIKR
notes: also called CDRH3 H98>F
B12: Pos 96 Phe (antibody, V domains shown)
VH: EVQLVESGGGLVQPGGSLRLSCAASGFTFSSYAMSWVRQAPGKGLEWVATISDGGSFTYYLDNVRGRFTISRDNAKNSLYLQMNSLRAEDTAVYYCARDFGHTTFWYFDVWGRGTLVTVSS
VL: DIVMTQSPDSLAVSLGERATINCRASKSVSAAGYNFMHWYQQKPGQPPKVLIYYASNLESGVPDRFSGSGSGTDFTLTISSLQAEDVAVYYCLHSREFPFTFGGGTKVEIKR
notes: also called CDRH3 V96>F
B13: Pos 100C Phe (antibody, V domains shown)
VH: EVQLVESGGGLVQPGGSLRLSCAASGFTFSSYAMSWVRQAPGKGLEWVATISDGGSFTYYLDNVRGRFTISRDNAKNSLYLQMNSLRAEDTAVYYCARDVGHTTFWFFDVWGRGTLVTVSS
VL: DIVMTQSPDSLAVSLGERATINCRASKSVSAAGYNFMHWYQQKPGQPPKVLIYYASNLESGVPDRFSGSGSGTDFTLTISSLQAEDVAVYYCLHSREFPFTFGGGTKVEIKR
notes: also called CDRH3 Y100C>F
B14: Pos 97 Phe (antibody, V domains shown)
VH: EVQLVESGGGLVQPGGSLRLSCAASGFTFSSYAMSWVRQAPGKGLEWVATISDGGSFTYYLDNVRGRFTISRDNAKNSLYLQMNSLRAEDTAVYYCARDVFHTTFWYFDVWGRGTLVTVSS
VL: DIVMTQSPDSLAVSLGERATINCRASKSVSAAGYNFMHWYQQKPGQPPKVLIYYASNLESGVPDRFSGSGSGTDFTLTISSLQAEDVAVYYCLHSREFPFTFGGGTKVEIKR
notes: also called CDRH3 G97>F
B15: Pos 100B Glu (antibody, V domains shown)
VH: EVQLVESGGGLVQPGGSLRLSCAASGFTFSSYAMSWVRQAPGKGLEWVATISDGGSFTYYLDNVRGRFTISRDNAKNSLYLQMNSLRAEDTAVYYCARDVGHTTFEYFDVWGRGTLVTVSS
VL: DIVMTQSPDSLAVSLGERATINCRASKSVSAAGYNFMHWYQQKPGQPPKVLIYYASNLESGVPDRFSGSGSGTDFTLTISSLQAEDVAVYYCLHSREFPFTFGGGTKVEIKR
notes: also called CDRH3 W100B>E
B16: Pos 97 Met (antibody, V domains shown)
VH: EVQLVESGGGLVQPGGSLRLSCAASGFTFSSYAMSWVRQAPGKGLEWVATISDGGSFTYYLDNVRGRFTISRDNAKNSLYLQMNSLRAEDTAVYYCARDVMHTTFWYFDVWGRGTLVTVSS
VL: DIVMTQSPDSLAVSLGERATINCRASKSVSAAGYNFMHWYQQKPGQPPKVLIYYASNLESGVPDRFSGSGSGTDFTLTISSLQAEDVAVYYCLHSREFPFTFGGGTKVEIKR
notes: also called CDRH3 G97>M
B17: Pos 98 Gln (antibody, V domains shown)
VH: EVQLVESGGGLVQPGGSLRLSCAASGFTFSSYAMSWVRQAPGKGLEWVATISDGGSFTYYLDNVRGRFTISRDNAKNSLYLQMNSLRAEDTAVYYCARDVGQTTFWYFDVWGRGTLVTVSS
VL: DIVMTQSPDSLAVSLGERATINCRASKSVSAAGYNFMHWYQQKPGQPPKVLIYYASNLESGVPDRFSGSGSGTDFTLTISSLQAEDVAVYYCLHSREFPFTFGGGTKVEIKR
notes: also called CDRH3 H98>Q
B18: Pos 100C Gly (antibody, V domains shown)
VH: EVQLVESGGGLVQPGGSLRLSCAASGFTFSSYAMSWVRQAPGKGLEWVATISDGGSFTYYLDNVRGRFTISRDNAKNSLYLQMNSLRAEDTAVYYCARDVGHTTFWGFDVWGRGTLVTVSS
VL: DIVMTQSPDSLAVSLGERATINCRASKSVSAAGYNFMHWYQQKPGQPPKVLIYYASNLESGVPDRFSGSGSGTDFTLTISSLQAEDVAVYYCLHSREFPFTFGGGTKVEIKR
notes: also called CDRH3 Y100C>G

For the experiment, the target named is T1, Human OSM. Briefly: SPR (ProteOn XPR36 or Biacore T100), captured supernatant, OSM as analyte. As to the method: The initial kinetic analyses for the CDRH3 screen were carried out on the ProteOn XPR36 (Biorad Laboratories) and certain supernatants were selected for more accurate kinetic analysis on the BiaCore T100.
For the ProteOn analysis, anti-human IgG (GE Healthcare/Biacore BR-1008-39) was coupled to a GLM chip (Biorad Laboratories 176-5012) by primary amine coupling. The CDRH3 variants were captured directly on to this surface and recombinant human OSM was passed over the captured antibody surface at 256, 64, 16, 4 and 1 nM, with a buffer injection alone (i.e. 0 nM) used to double reference the binding curves. Following the OSM binding event, the capture surfaces were regenerated: with 3M MgCl₂ the regeneration removed the previously captured antibody ready for another cycle of capture and binding analysis. The data was then fitted to the 1:1 model (with mass transport) inherent to the ProteOn analysis software. The run was carried out using HBS-EP (Biacore/GE-Healthcare BR-1006-69) and the analysis temperature was 25° C.
A similar method was used for analysis of constructs using the Biacore T100, anti-human IgG (GE Healthcare/Biacore BR-1008-39) was coupled to a CM5 chip (GE Healthcare/Biacore BR-1006-68) by primary amine coupling, antibodies were captured on this surface and recombinant human OSM was passed over the captured antibody surface at 256, 64, 16, 4 and 1 nM, with a buffer injection alone (i.e. 0 nM) used to double reference the binding curves. Regeneration was by using pulses of 3M 3M MgCl₂ or 100 mM phosphoric acid or using both reagents. The data was fitted to the 1:1 model inherent to the Biacore T100 analysis software. The run was carried out using HBS-EP (Biacore/GE-Healthcare BR-1006-69) and the analysis temperature was 25° C.
Background: Surface plasmon resonance follows binding to a sensor surface in real time, without labels.
As for B1, the affinity, expressed as Kd, was 0.488 nM.

B2 returned a Kd of 0.541 nM.

For the molecule B3, the equilibrium dissociation constant (Kd) was 0.486 nM.

With B4, the dissociation constant (Kd) amounted to 1.11 nM.

Take B5: the Kd was 0.482 nM.

In the case of B6, binding was put at a Kd of 0.651 nM.

Molecule B7 gave a Kd of 0.48 nM.

In turn, B8 returned a Kd of 0.708 nM.

As to B9, the affinity, expressed as Kd, was 0.659 nM.

In the case of B10, the dissociation constant Kd was 0.671 nM.

In the case of B11, binding was put at a Kd of 0.325 nM.

In turn, B12 displayed an equilibrium dissociation constant (Kd) of 0.61 nM.

B13 returned an equilibrium dissociation constant (Kd) of 0.365 nM.

For B14, binding was characterised by a dissociation constant (Kd) of 0.637 nM.

Molecule B15 gave a Kd of 0.491 nM.

B16 showed a Kd of 0.809 nM.

Turning to B17, the affinity, expressed as Kd, was 0.729 nM.

In turn, B18 gave a Kd of 0.388 nM.

What is called Kd is the free concentration of one partner at which half of the binding sites on the other are occupied at equilibrium, for simple one-to-one binding. High values mean a looser complex, low ones a tighter complex.
